In general, Kd refers to a measure of binding affinity in units of concentration. What is called stoichiometry N is the number of molecules, sites or subunits per partner or assembly.

Assay [1] addresses T1, Cir TonB Box mutant M33C/V35P (in 4-Met Cir) (E. coli, UniProt P17315 26-663, W338 mutated to methionine | L343 mutated to methionine | F589 mutated to …).
T1 sequence: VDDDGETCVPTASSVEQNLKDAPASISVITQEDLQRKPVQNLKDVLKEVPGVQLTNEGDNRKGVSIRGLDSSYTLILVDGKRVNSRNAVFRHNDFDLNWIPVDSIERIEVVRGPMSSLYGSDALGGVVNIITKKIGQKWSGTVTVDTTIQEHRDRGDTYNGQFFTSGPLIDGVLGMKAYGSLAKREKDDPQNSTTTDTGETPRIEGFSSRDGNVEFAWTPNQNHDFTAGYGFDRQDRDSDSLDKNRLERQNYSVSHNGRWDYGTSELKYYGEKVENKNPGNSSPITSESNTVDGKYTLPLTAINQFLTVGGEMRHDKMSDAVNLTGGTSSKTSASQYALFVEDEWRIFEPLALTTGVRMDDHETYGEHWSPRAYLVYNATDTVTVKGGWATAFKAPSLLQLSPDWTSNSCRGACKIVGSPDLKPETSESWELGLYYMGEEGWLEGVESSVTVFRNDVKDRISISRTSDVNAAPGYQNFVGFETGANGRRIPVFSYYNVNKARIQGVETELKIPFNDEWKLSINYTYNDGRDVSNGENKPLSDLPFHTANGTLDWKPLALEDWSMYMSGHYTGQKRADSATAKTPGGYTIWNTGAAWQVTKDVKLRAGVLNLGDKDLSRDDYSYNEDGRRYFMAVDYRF
Nature of the assay: BLI. (In general: In BLI a coated tip is dipped into the sample, and binding shifts an interference pattern.)

Assay [2] has as its target T2, 4-Met substituted E. coli Cir (colicin Ia receptor), the paper's wildtype (WT) Cir (E. coli, UniProt P17315 26-663, W338 mutated to methionine | L343 mutated to methionine | F589 mutated to …).
T2 construct: Cir (colicin Ia receptor, TonB-dependent transporter), E. coli, mature coding region of cirA with four residues changed to methionine (4-Met); No TEV cleavage of Cir is described; also called apo-Cir; His-tagged Cir; not shown: His10, N-terminal, kept
T2 sequence (looked up): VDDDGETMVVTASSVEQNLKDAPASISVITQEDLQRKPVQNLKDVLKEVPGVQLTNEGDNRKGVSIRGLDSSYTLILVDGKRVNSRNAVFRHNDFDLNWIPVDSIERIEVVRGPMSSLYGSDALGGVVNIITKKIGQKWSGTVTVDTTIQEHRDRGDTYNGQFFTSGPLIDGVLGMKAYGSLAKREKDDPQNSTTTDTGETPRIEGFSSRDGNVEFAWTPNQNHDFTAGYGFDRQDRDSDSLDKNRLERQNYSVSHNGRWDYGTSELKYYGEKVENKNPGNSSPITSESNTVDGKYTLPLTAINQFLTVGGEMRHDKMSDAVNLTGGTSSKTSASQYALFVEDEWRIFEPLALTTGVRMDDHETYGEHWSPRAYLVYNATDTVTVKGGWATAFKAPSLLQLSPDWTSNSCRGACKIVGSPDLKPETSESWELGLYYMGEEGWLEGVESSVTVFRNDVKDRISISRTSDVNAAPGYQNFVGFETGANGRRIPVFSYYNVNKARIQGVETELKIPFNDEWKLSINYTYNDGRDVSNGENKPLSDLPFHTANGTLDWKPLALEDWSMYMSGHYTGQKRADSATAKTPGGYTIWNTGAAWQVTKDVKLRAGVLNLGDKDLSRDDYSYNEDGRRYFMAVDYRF
Nature of the assay: AUC; sedimentation velocity, NAPol-solubilised Cir and its mixtures with MccV in phosphate-buffered saline, 50,000 rpm, 20 C; single-site model. The following applies: both partners purified.

Assay [3] concerns the target T2, 4-Met substituted E. coli Cir (colicin …). Nature of the assay: BLI + AUC; stoichiometry reported from the concurrence of BLI (1:1 model) and SV-AUC (single-site model). The following applies: both partners purified.
Assay [4] has the same target. Nature of the assay: BLI; biotinylated MccV (100 nM) on streptavidin sensors, WT Cir 5 uM to 78 nM in PBS-T; steady state equilibrium, 1:1 binding model; incomplete equilibrium during the association phase. The following applies: both partners purified.
The target in assay [5] is T3, Cir R436E/R490E (in 4-Met Cir) (E. coli, UniProt P17315 26-663, W338 mutated to methionine | L343 mutated to methionine | F589 mutated to …).
T3 sequence: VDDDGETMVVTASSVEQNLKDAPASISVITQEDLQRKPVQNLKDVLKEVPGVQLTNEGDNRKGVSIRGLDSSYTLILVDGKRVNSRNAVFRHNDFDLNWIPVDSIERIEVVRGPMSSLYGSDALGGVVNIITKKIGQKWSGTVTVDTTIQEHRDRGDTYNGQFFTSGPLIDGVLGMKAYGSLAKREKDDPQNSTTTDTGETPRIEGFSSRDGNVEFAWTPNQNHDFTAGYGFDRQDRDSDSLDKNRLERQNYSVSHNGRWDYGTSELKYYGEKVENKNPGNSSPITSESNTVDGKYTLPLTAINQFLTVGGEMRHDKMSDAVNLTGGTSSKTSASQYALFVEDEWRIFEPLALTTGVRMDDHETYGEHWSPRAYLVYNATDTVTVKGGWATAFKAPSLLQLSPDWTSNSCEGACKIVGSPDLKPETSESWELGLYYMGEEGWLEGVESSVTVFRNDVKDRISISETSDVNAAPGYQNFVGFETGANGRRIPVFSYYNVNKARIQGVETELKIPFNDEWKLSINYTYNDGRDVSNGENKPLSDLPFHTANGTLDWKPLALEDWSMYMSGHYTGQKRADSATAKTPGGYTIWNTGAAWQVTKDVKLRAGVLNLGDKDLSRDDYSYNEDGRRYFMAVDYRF
Put plainly: BLI.

Assay [6] concerns the target T4, Cir C435A (in 4-Met Cir) (E. coli, UniProt P17315 26-663, W338 mutated to methionine | L343 mutated to methionine | F589 mutated to …).
T4 sequence: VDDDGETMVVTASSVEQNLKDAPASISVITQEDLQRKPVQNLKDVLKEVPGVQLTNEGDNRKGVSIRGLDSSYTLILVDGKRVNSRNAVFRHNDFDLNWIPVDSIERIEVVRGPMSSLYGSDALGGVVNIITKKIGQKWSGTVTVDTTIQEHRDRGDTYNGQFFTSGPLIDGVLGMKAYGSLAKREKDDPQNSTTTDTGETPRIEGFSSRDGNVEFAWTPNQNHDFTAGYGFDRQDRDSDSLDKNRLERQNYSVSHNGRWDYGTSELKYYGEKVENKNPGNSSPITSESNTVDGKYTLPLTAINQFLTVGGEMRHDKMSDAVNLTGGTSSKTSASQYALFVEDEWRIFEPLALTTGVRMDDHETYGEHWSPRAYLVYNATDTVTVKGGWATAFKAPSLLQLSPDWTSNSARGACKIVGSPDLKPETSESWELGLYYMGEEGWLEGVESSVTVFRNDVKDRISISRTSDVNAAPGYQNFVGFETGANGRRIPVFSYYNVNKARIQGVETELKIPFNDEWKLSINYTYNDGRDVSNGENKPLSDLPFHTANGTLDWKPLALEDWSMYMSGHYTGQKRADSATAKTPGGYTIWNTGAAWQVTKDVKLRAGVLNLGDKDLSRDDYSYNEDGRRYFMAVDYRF
Put plainly: BLI.

The target of assay [7] is T2, 4-Met substituted E. coli Cir (colicin …). Put plainly: BLI; biotinylated MccV (100 nM) loaded on streptavidin SA-XT sensors, Cir in twofold dilutions 5 uM to 78 nM in PBS-T; 300 s association, 240 s dissociation; first 30 s of association and dissociation fit to a 1:1 global model. Conditions: both partners purified.
Assay [8] has as its target D85A and D85R (MccV mutants, as a group). The description is as above.

B1: Microcin V (MccV), mature, wildtype (natural protein, E. coli, UniProt P22522 16-103, looked up)
chain: ASGRDIAMAIGTLSGQFVAGGIGAAAGGVAGGAIYDYASTHKPNPAMSPSGLGGTIKQKPEGIPSEAWNYAAGRLCNWSPNNLSDVCL
modifications: biotinylated (EZ-Link Sulfo-NHS-LC kit) for BLI and ELISA; not labelled for cryo-EM and SV-AUC
notes: Only residues 57-88 (mature numbering) were resolved in the map; also called WT MccV; Colicin V; source: E. coli BL21 (DE3), purified (HisTrap as His6-MBP fusion, TEV cleavage, second nickel column, flowthrough); not shown: His6, N-terminal, cleaved; MBP, N-terminal, cleaved
In the case of B1, the Kd amounted to 374 nM in assay [1]; 600 ± 200 nM in assay [2]; 1700 ± 1200 nM in assay [4]; 1580 nM in assay [5]; 552 nM in assay [6]; 155 ± 30 nM in assay [7]. Moreover, in assay [3], the “stoichiometry N” value was determined as 1.

B2: 4-Met substituted E. coli Cir (colicin Ia receptor), the paper's wildtype (WT) Cir (receptor)
chain: VDDDGETMVVTASSVEQNLKDAPASISVITQEDLQRKPVQNLKDVLKEVPGVQLTNEGDNRKGVSIRGLDSSYTLILVDGKRVNSRNAVFRHNDFDLNWIPVDSIERIEVVRGPMSSLYGSDALGGVVNIITKKIGQKWSGTVTVDTTIQEHRDRGDTYNGQFFTSGPLIDGVLGMKAYGSLAKREKDDPQNSTTTDTGETPRIEGFSSRDGNVEFAWTPNQNHDFTAGYGFDRQDRDSDSLDKNRLERQNYSVSHNGRWDYGTSELKYYGEKVENKNPGNSSPITSESNTVDGKYTLPLTAINQFLTVGGEMRHDKMSDAVNLTGGTSSKTSASQYALFVEDEWRIFEPLALTTGVRMDDHETYGEHWSPRAYLVYNATDTVTVKGGWATAFKAPSLLQLSPDWTSNSCRGACKIVGSPDLKPETSESWELGLYYMGEEGWLEGVESSVTVFRNDVKDRISISRTSDVNAAPGYQNFVGFETGANGRRIPVFSYYNVNKARIQGVETELKIPFNDEWKLSINYTYNDGRDVSNGENKPLSDLPFHTANGTLDWKPLALEDWSMYMSGHYTGQKRADSATAKTPGGYTIWNTGAAWQVTKDVKLRAGVLNLGDKDLSRDDYSYNEDGRRYFMAVDYRF
Regarding B2, the percent reduction in response shift relative to WT at 5 μM probe in assay [8] is 40 to 45%.

The values above are taken from paper PMC12511343, “Structural insights into Cir-mediated killing by the antimicrobial protein Microcin V” (Communications Biology, 2025).
